Tested on: MS2 coat protein
Assay: apparent KD of MS2 coat protein; designed switch direction (-1 OFF switch, 1 ON switch): -1; higher = weaker reporter binding
Outline: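 The reported apparent KD is a per-design median over clusters, from curve fits of normalised cluster fluorescence. Protein titrations used SNAP-549-labelled MS2 coat protein, doubled from 0.7 or 1.5 nM to 3 µM, in Tris-HCl pH 7.5 buffer with KCl, MgCl2, BSA, DTT, tRNA and Tween-20, with no input, 200 uM small-molecule ligand, or an oligonucleotide input. The RNA switches were transcribed on Illumina chips by stalled E. coli RNA polymerase.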

[1] = input ligand: microRNA oligo, concentration not stated
[2] = Eterna round: R95, input ligand: FMN 200 uM
[3] = Eterna round: R95, input ligand: microRNA oligo, concentration not stated
[4] = Eterna round: R95, input ligand: none

Row | Sequence | apparent KD of MS2 coat protein (input ligand: FMN 200 uM) [µM] | apparent KD of MS2 coat protein [1] [µM] | apparent KD of MS2 coat protein (input ligand: none) [µM] | apparent KD of MS2 coat protein [2] [µM] | apparent KD of MS2 coat protein [3] [µM] | apparent KD of MS2 coat protein [4] [µM]
1 | ACAUGAGGAUCACCCAUGUUCGGCUGGUCCGUCUCGGCUGUCGAGGAUAUAGUUCGGUGUCCGCGCUAGAAGGCGGGAGCUGGC [Aenatbe mod 65] (Eterna round: R96, puzzle: Exclusion NG 3) | 0.0341 | 0.0294 | 0.0426 | – | – | –
2 | ACAUGAGGAUCACCCAUGUUUAUUGGGUACUAUACUAUCAGCAAGGAUAUGCAAAUUUUUUUUACGCAGAAGGUGCAGGAACCU [JR_ExcNG3_Sub070] (Eterna round: R96, puzzle: Exclusion NG 3) | – | 0.355 | – | – | – | –
3 | ACAUGAGGAUCACCCAUGUUUGGCUGGUUUUCUCCGGCUGUCGAGGAUAUAGUACGGUAUCCGCGCUAGAAGGUGAGGGCCGGC [Aenatbe mod 1] (Eterna round: R96, puzzle: Exclusion NG 3) | 0.0155 | 0.0143 | 0.0158 | – | – | –
4 | ACAUGAGGAUCACCCAUGUUUUUUGGGUACUCUUGAUACAGCAAGGAUAUGCAUUAUUUAUGUACGCAGAAGGUGCAUUACGUC [JR_ExcNG3_Sub063] (Eterna round: R96, puzzle: Exclusion NG 3) | – | 0.837 | – | – | – | –
5 | ACAUGAGGAUCACCCAUGUUUUUUGGGUACUCUUGUUUCUGCAAGGAUAUGCAUUAUUUAUGUACGCAGAAGGUGCAUUACGUC [JR_ExcNG3_Sub062] (Eterna round: R96, puzzle: Exclusion NG 3) | 0.696 | 0.692 | 0.962 | – | – | –
6 | ACAUGUAUUGCAGGAUAUGGGACACAUGAGGAUCACCCAUGUGACUACAUGUCAUACCACGGGUCUCAGAAGGGUAUGUACAUG [Ex NG2 #40] (Eterna round: R96, puzzle: Exclusion NG 2) | 0.0289 | 0.0151 | 0.023 | – | – | –
7 | ACAUGUCAUCGAGGAUAUUGGACACAUGAGGAUCACCCAUGUACUCGGAUGCUCUAGCAUGAGUUCGAGAAGGCGAUGUACAUU [Ex NG2 #79] (Eterna round: R96, puzzle: Exclusion NG 2) | 1.35 | 0.234 | 0.593 | – | – | –
8 | ACAUGUCAUUGAGGAUAUUGCAAACAUGAGGAUCACCCAUGUAAACGGAUGCUCUUACGUGGGUUCGAGAAGGCGAUGUACAUU [Ex NG2 #93] (Eterna round: R96, puzzle: Exclusion NG 2) | 0.93 | 0.0398 | 0.242 | – | – | –
9 | ACAUGUUAUCCAUGAUAUCACAUGAGGAUCACCCAUGUUAUGGCGAUUUUGAGGUGUAAGUUUUGUGCUCGUCUUAU [JR_STOV1_Sub057] (Eterna round: R97, puzzle: Sensor, turn-off variant 1) | 0.0801 | – | 0.0894 | – | – | –
10 | ACAUGUUAUCCAUGAUAUCACAUGAGGAUCACCCAUGUUAUGGCGAUUUUGAGGUGUAAGUUUUUUGCUCGUCUUAU [JR_STOV1_Sub058] (Eterna round: R97, puzzle: Sensor, turn-off variant 1) | 0.0515 | – | 0.0611 | – | – | –
11 | ACAUGUUAUCCAUGAUAUUACAUGAGGAUCACCCAUGUUAUGGCGAUUUUGAUGUGUAAGUUUGUUGCUCGUCUUAU [JR_STOV1_Sub060] (Eterna round: R97, puzzle: Sensor, turn-off variant 1) | 0.0409 | – | 0.0481 | – | – | –
12 | ACAUGUUGUCCAUGAUAUUACAUGAGGAUCACCCAUGUUAUUGUGAUUUUGAUGUGUAAGUUUGUUGCUCGUCUUAU [JR_STOV1_Sub063] (Eterna round: R97, puzzle: Sensor, turn-off variant 1) | 0.0298 | – | 0.0294 | – | – | –
13 | ACCAUAGAUGUAGGAUAUCCAUGAAGAUAACAAGGAGAAGGACAUGAGGAUCACCCAUGUAAGUAUUAUGAAUGUAGCGACAGC [Meechl Ex NG1] (Eterna round: R96, puzzle: Exclusion NG 1) | 0.0821 | 0.034 | 0.0595 | – | – | –
14 | ACCAUGGUUGAAGCUAACAUGAGGAUCACCCAUGUAAGCUGCUAGGAUAUGCAGAGGCCCAGAAAGCAGAAGGAGCAGUACUGC [Diatzagequ] (Eterna round: R96, puzzle: Exclusion NG 3) | 0.0142 | 0.0106 | 0.0149 | – | – | –
15 | ACCAUUUACUAAUCCUCUAUACAUGAGGAUCACCCAUGUUCUGAGGAUAUCAUCGUUCGCCGCGUUGAGAAGGCAGAGCAUUCG [Ariestion] (Eterna round: R96, puzzle: Exclusion NG 3) | 0.157 | 0.0224 | 0.0248 | – | – | –
16 | ACCUCACAUGAGGAUCACCCAUGUCAGGAUAUCUAUUAUUGCAGCAUUCCUGUCGCUGAGAGAAGGGACAUUAA [EX1 #28] (Eterna round: R97, puzzle: Exclusion 1) | 0.0294 | – | 0.0237 | – | – | –
17 | ACGAUGACCGAAAAGUGUUAACUGACAUGAGGAUCACCCAUGUAGGAUAUGGCUACGAAAAGUAGUCAGAAGGGCAUGUCAUCA [Omei Exc(NG) 3 Av8] (Eterna round: R96, puzzle: Exclusion NG 3) | 0.027 | 0.0187 | 0.0273 | – | – | –
18 | ACGCAUUGCCUUUGGUAGUGCGUAACAUGAGGAUCACCCAUGUAGGAUAUGGUAGGCUUUGCUUACCAGAAGGACAUUAUAUUC [JL ENG3 1.03] (Eterna round: R96, puzzle: Exclusion NG 3) | 0.0694 | 0.0221 | 0.0219 | – | – | –
19 | ACGCCGCAAGGAUAUCGUAAAGCAGACAUGAGGAUCACCCAUGUGAUAUCAUAAAGGCCACGAGAAGGUGCACAAG [Quoredin] (puzzle: Exclusion 5) | – | – | – | 0.0358 | 0.0212 | 0.0245
20 | ACGCUAUGAGGAUAUACAUGAGGAUCACCCAUGUCCCGAUGGUGUUUCCAUUGGAGACGUAGAAGGUAUGGUUA [Eternabot (L2) Solution 13] (Eterna round: R97, puzzle: Exclusion 3) | 0.169 | – | 0.172 | – | – | –
21 | ACGUGAGCUGAGGAUAUGCCACUAGCCCGCCUGGCAGAAGGCAGUACAUGAGGAUCACCCAUGUGCGUUGGGUG [Leintice] (Eterna round: R97, puzzle: Exclusion 6) | 0.334 | – | 0.335 | – | – | –
22 | ACGUUGUCAGGAUAUCGUUAAUUUAGUUGUUUGUAUUAGUUCGAGAAGGGACAUGAGGAUCACCCAUGUUUGCA [Ex4 #31] (Eterna round: R97, puzzle: Exclusion 4) | 0.0327 | – | 0.0263 | – | – | –
23 | ACGUUUUUUGAGGAUAUGCGAUAUUUUUUUAUCGUAGAAGGCGAUACAUGAGGAUCACCCAUGUUUAUGGGCAU [LRO-Ex6-19] (puzzle: Exclusion 6) | – | – | – | – | 0.143 | –
24 | ACUAGCGAAAUGCUCGUCUUAUUUUUGUAGAGGUUCUAAACAUGAGGAUCACCCAUGUAGUGGUUUUUGUGGAGGUA [JR_SV3TOV2_Sub071] (puzzle: Sensor v3, turn-off variant 2) | – | – | – | 0.222 | – | 0.349
25 | ACUAGCUUUUUGCAUAGUAGGUUUGGUGCUUCGUAUGCAACAUGAGGAUCACCCAUGUAUUACUGAUGUCGUCGUUU [JR_SV3TOV2_Sub092] (puzzle: Sensor v3, turn-off variant 2) | – | – | – | 0.0262 | 0.0482 | 0.0278
26 | ACUAGCUUUUUGCAUAGUAGGUUUGGUGCUUCGUAUGCUACAUGAGGAUCACCCAUGUUUUACUGAUGUCGUCGUUU [JR_SV3TOV2_Sub094] (puzzle: Sensor v3, turn-off variant 2) | – | – | – | 0.0327 | 0.0529 | 0.0323
27 | ACUAGUCUAAAGGAUAUGGACCUGAACAAAUGGCCAGAAGGUUAAACAUGAGGAUCACCCAUGUAGGUGCGCCA [Eternabot (Original) Solution 18] (Eterna round: R97, puzzle: Exclusion 6) | 0.0312 | – | 0.0272 | – | – | –
28 | ACUGACAUGAGGAUCACCCAUGUAGAUGUGUUCGCAAGCCUCUAGGAUAUAUCUAACCUACCCGGAUAGAAGGAGAGGUUCCCU [Eternabot solution 9] (Eterna round: R96, puzzle: Exclusion NG 3) | 0.0252 | 0.0211 | 0.0317 | – | – | –
29 | ACUGGUCGAGGAUAUACAAUCGUGCUUCGGCACGUAAGAUCACAUGAGGAUCACCCAUGUAGAAGGUGACCAGU [E2/1-B2] (Eterna round: R97, puzzle: Exclusion 2) | 0.135 | – | 0.0283 | – | – | –
30 | ACUGGUCGAGGAUAUACAUGAGGAUCACCCAUGUAGAUCAACCAGCGAUAGCUGGAAUGUAGAAGGCGACCAGU [E3/5-A2] (Eterna round: R97, puzzle: Exclusion 3) | 0.191 | – | 0.0246 | – | – | –

Reference: the supplement of paper PMC9170038
